Consider seven molecules from PMC2932737, “DNA Clasping by Mtb HU”.

The target of data set [1] is HupBMtb (HU, MDP-1, HLPMt) (Mycobacterium tuberculosis H37Rv) (UniProt P9WMK7). Put plainly: EMSA.
Data set [2] shares this target. Briefly: agarose EMSA. The following applies: scale: fold higher affinity than for linear pBSK.
The target of data set [3] is T1, HupBMtbN (Mycobacterium tuberculosis H37Rv, UniProt P9WMK7 3-97). Briefly: EMSA; 0-300 nM protein; single complex. The following applies: protein: recombinant; tags: His (pET28a, NdeI/HindIII); chain copies: 2; label: 5' 32P; blunt.
T1 sequence (P9WMK7 3-97): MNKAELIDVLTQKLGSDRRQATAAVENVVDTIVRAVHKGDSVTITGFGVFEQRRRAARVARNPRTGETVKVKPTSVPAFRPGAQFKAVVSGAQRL
Data set [4] deals with T2, HupBMtb (HU, MDP-1, HLPMt) (Mycobacterium tuberculosis H37Rv, UniProt P9WMK7 3-216). Briefly: EMSA; 0-300 nM protein; two complexes. The following applies: protein: recombinant; tags: His (pET28a, NdeI/HindIII); chain copies: 2; label: 5' 32P; blunt.
T2 sequence (P9WMK7 3-216): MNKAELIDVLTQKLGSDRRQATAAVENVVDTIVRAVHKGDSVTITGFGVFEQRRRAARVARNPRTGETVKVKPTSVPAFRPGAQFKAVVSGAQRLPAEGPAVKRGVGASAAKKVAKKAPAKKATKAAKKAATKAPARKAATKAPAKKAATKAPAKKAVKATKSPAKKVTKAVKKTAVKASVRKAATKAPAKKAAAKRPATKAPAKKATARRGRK
Data set [5] concerns the target T2, HupBMtb (HU, MDP-1, HLPMt). Put plainly: EMSA; 0-300 nM protein; negligible. The conditions noted are these: protein: recombinant; tags: His (pET28a, NdeI/HindIII); chain copies: 2; label: 5' 32P; blunt.
Data set [6] concerns the target T2, HupBMtb (HU, MDP-1, HLPMt). Put plainly: EMSA; 200 mM KCl. The following applies: protein: recombinant, tags: His (pET28a, NdeI/HindIII), chain copies: 2, label: 5' 32P, blunt.
Data set [7] deals with T1, HupBMtbN. Briefly: EMSA; 10 mM KCl. The following applies: protein: recombinant, tags: His (pET28a, NdeI/HindIII), chain copies: 2, label: 5' 32P, blunt.
For data set [8], the target named is T2, HupBMtb (HU, MDP-1, HLPMt). Put plainly: EMSA; 10 mM KCl. The conditions noted are these: protein: recombinant, tags: His (pET28a, NdeI/HindIII), chain copies: 2, label: 5' 32P, blunt.
[9] abbreviates: 48 bp duplex with nick in the lower strand.
Where [10] appears, read: duplex with 1 nt gap in the lower strand.
Setting [11] is: duplex with 2 nt gap in the lower strand.

Sequence of HupBMtb (HU, MDP-1, HLPMt) (Mycobacterium tuberculosis H37Rv) (P9WMK7 3-216): as above

The molecule “CTCTGTGACTGGTGTGACCTGGGAGAGAGAAGTTTTTTTAAGAACGTT (double strand) [A1 ds DNA (SH_1+SH_2)]” returned an equilibrium dissociation constant (Kd) in data set [1] of 42 nM. Turning to pBluescript SK supercoiled, in data set [2], the binding signal was found to be 1.5.

B1: A7 64% AT DNA (SH_12+SH_13) (dsDNA)
DNA 1: TCAAATCTAATCGGAGTCGTTTTGA
DNA 2: TCAAAACGACTCCGATTAGATTTGA
For the molecule B1, the binding result in data set [3] and in data set [4] was “binds” in each case.

B2: A6 84% GC DNA (SH_10+SH_11) (dsDNA)
DNA 1: GCCCGGCTGCACCGCGCCACCGCGG
DNA 2: CCGCGGTGGCGCGGTGCAGCCGGGC
As to B2, the binding result in data set [5] is given as “no binding”.

B3: A2 nick DNA (SH_1+SH_3+SH_4) (structured_DNA)
DNA 1: CTCTGTGACTGGTGTGACCTGGGAGAGAGAAGTTTTTTTAAGAACGTT
DNA 2: TCCCAGGTCACACCAGTCACAGAG
DNA 3: AACGTTCTTAAAAAAACTTCTCTC
For the molecule B3, the dissociation constant Kd in data set [6] (setting [9]) was 65 nM; in data set [7] (setting [9]), 1000 nM.

B4: A3 1-nt gap DNA (SH_1+SH_3+SH_5) (structured_DNA)
DNA 1: CTCTGTGACTGGTGTGACCTGGGAGAGAGAAGTTTTTTTAAGAACGTT
DNA 2: TCCCAGGTCACACCAGTCACAGAG
DNA 3: AACGTTCTTAAAAAAACTTCTCT
For the molecule B4, the Kd was 55 nM in data set [8] (setting [10]) and 725 nM in data set [7] (setting [10]).

B5: A4 2-nt gap DNA (SH_1+SH_3+SH_6) (structured_DNA)
DNA 1: CTCTGTGACTGGTGTGACCTGGGAGAGAGAAGTTTTTTTAAGAACGTT
DNA 2: TCCCAGGTCACACCAGTCACAGAG
DNA 3: AACGTTCTTAAAAAAACTTCTC
Consider B5, for which the Kd in data set [6] (setting [11]) is 88 nM; in data set [8] (setting [11]), 60 nM; in data set [7] (setting [11]), 536 nM.
